Reference: the supplement of paper PMC10899765

Tests used:
Details in all cases: 20 nM; 72 h
MCF10A [1] = experiment: 5+ nucleoli phenotype percent effect (relative to siNT 0% and siKIF11 100%); higher = more cells with five or more nucleoli
Protocol: (§1)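 After 72 h, cells were fixed and stained with Hoechst and anti-fibrillarin, and nucleoli per nucleus were counted with CellProfiler. Values are plate-adjusted percent effect for the one-nucleolus and 5+ nucleoli phenotypes, normalised to siNT (0%) and to the positive controls siNOL11 or siKIF11 (100%), as the mean of biological triplicates. Percent viability is the nuclei count relative to siNT.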

MCF10A [2] = experiment: one-nucleolus phenotype percent effect (relative to siNT 0% and siNOL11 100%); higher = more cells with one nucleolus (ribosome biogenesis inhibition)
Protocol: as §1

MCF10A [3] = experiment: percent viability (nuclei count relative to siNT); higher = more viable cells
Protocol: as §1

Sequence	5+ nucleoli phenotype percent effect (MCF10A [1]) [%]	one-nucleolus phenotype percent effect (MCF10A [2]) [%]	percent viability (MCF10A [3]) [%]
UUUCAGAUAACAGUAUUACAU [hsa-miR-3942-3p]	-0.677	-15.3	58.8
CUGGGACAGGAGGAGGAGGCAG [hsa-miR-4298]	39.2	-17.4	67.8
CCUCCCACACCCAAGGCUUGCA [hsa-miR-532-3p]	23.9	5.19	38.6
CAGUGGUUUUACCCUAUGGUAG [hsa-miR-140-5p]	-31.4	20.1	61.4
GUAGGGGAGGUUGGGCCAGGGA [hsa-miR-6824-5p]	39.2	-25.3	78.1
AAAACCGUCUAGUUACAGUUGU [hsa-miR-1537]	13.9	-11.1	73.7
GCAGUGGCUCUGAAAUGAACUC [hsa-miR-5693]	-12.8	-3.8	33.8
ACAAAGUACAGCAUUAGCCUUAG [hsa-miR-3973]	0.19	-6.17	29.3
UUUGGUCCCCUUCAACCAGCUG [hsa-miR-133a]	-24.8	20.5	34.5
UGCUGCCUCUCCUCUUGCCUGCAG [hsa-miR-6882-3p]	44.3	-22.8	45.6
GGGGGGGCAGGAGGGGCUCAGGG [hsa-miR-328-5p]	33.9	-28.4	129
CUGCAGAGUUUGUACGGACCGG [hsa-miR-3678-3p]	-37.4	10.8	66.6
AUCUGACCUGAUGAAGGU [hsa-miR-4256]	5.64	30.3	11.7
AUUUCCCUGCCAUUCCCUUGGC [hsa-miR-4446-5p]	-36	28.2	18.4
GAAGAUGGUGCUGUGCUGAGGAA [hsa-miR-4647]	-5.89	22.7	60.7
AGGGUGUGUGUGUUUUU [hsa-miR-4455]	13.6	3.96	22.4
CAAAAGUGAUUGUGGUUUUUGC [hsa-miR-548az-5p]	45.1	-15.6	149
AGGGUAAGCUGAACCUCUGAU [hsa-miR-555]	-11.2	17.6	32.4
UCUGAAAGAGCAGUUGGUGUU [hsa-miR-4766-5p]	2.75	-18.9	56.2
UUACAGGCGUGAACCACCGCG [hsa-miR-5095]	-7.36	15.8	12.8
GGGCGACAAAGCAAGACUCUUUCUU [hsa-miR-1273a]	-17.3	6.41	78.8
GAGAGCAGUGUGUGUUGCCUGG [hsa-miR-2278]	-44.7	40.5	30.7
UGGUGGGCCGCAGAACAUGUGC [hsa-miR-654-5p]	-8.23	20.4	31.2

Sequence	5+ nucleoli phenotype percent effect (MCF10A [1]) [%]	one-nucleolus phenotype percent effect (MCF10A [2]) [%]	percent viability (MCF10A [3]) [%]
AAAAGCACUUUUCUGUCUCCCAG [hsa-miR-6835-3p]	-36	12.3	41.3
CGGGUGGAUCACGAUGCAAUUU [hsa-miR-363-5p]	161	-21.2	4.57
AGUUCUUCAGUGGCAAGCUUUA [hsa-miR-22-5p]	24	3.93	75.4
UUGUACAUGGUAGGCUUUCAUU [hsa-miR-493-5p]	-9.79	3.68	81.7
AGAGGCUUUGUGCGGAUACGGGG [hsa-miR-3188]	-26	33.1	29.7
UAUAUGGACUUUUCUGAUACAAUG [hsa-miR-8076]	44.8	-22.4	49.4
ACUCUAGCUGCCAAAGGCGCU [hsa-miR-1251]	11.2	-4.32	80.4
UCCCUCGCCUUCUCACCCUCAG [hsa-miR-6803-3p]	25.3	-18.8	58.1
CGCUCUAGGCACCGCAGCA [hsa-miR-1301-5p]	95.7	-24.1	77.5
UAGGACACAUGGUCUACUUCU [hsa-miR-1197]	-9.77	7.44	61.7
AUGAGCGACUGUGCCUGACC [hsa-miR-5708]	-33	21.4	47.3
GAACGGCUUCAUACAGGAGUU [hsa-miR-337-5p]	-25.8	9.16	53.8
AAAAGCUGGGUUGAGAGGGCGA [hsa-miR-320a]	-11.8	18.7	38.1
CAGAACAGGAGCAUAGAAAGGC [hsa-miR-4773]	22.9	-20.2	43.7
AAAGGUGCUCAAAUUAGACAU [hsa-miR-4735-3p]	-26.8	43	21.4
GAGGCUGAAGGAAGAUGG [hsa-miR-4419b]	-30.7	21.1	58.3
UAGAGUCUGGCUGAUAUGGUUU [hsa-miR-5007-5p]	-8	14	49.3
AGGGGGGCACUGCGCAAGCAAAGCC [hsa-miR-6885-5p]	-29.8	16.6	42.5
CCUGGUGGCUUCCUUUU [hsa-miR-4456]	-4.84	6.37	23.6
UCUGUAUUCUCCUUUGCCUGCAG [hsa-miR-4742-3p]	3.24	6.5	24.4
UGGGUUUACGUUGGGAGAACU [hsa-miR-629-5p]	-19.1	17.7	52.3
AACUCGUGUUCAAAGCCUUUAG [hsa-miR-4636]	12.8	8.89	53.6
